Measured values taken from publication PMC8640741.

Target: SARS-CoV-2 spike (S) protein in the postfusion state, in situ on the viral membrane (SARS-CoV-2)
Assay: cryo-EM structure

Question: “SARS-CoV-2 spike (S) protein in the postfusion state, in situ on the viral membrane (natural protein)” was tested. Which stoichiometry N did it give?
Answer: 3
